# According to the RNAGym collection of RNA variant scans (doi:10.7554/elife.80360):
# B1: Hairpin Ribozyme (parent)
# chain: GUCCUCUUUCACGUGCGCGUGAAAGAGAGAAGUGAACCAGAGAAACACACGUUGUGGUAUAUUACCUGGUA
# Variants of: B1
# Assay: self-cleavage, relative activity (ratio to wild type); higher = more cleavage; co-transcriptional
row,Variant,self-cleavage
1,G1C C66G,0.0728
2,C50U C66U,0.159
3,G1U A64C,0.166
4,C3G G69U,0.141
5,A11C A31U,0.18
6,G56A A71U,0.142
7,G32U C37A,0.0811
8,A22G C37U,0.646
9,A28C C46U,0.151
10,U8A U14A,0.642
11,A47U U60A,0.0931
12,A31C U58G,0.131
13,A30C U53G,0.284
14,C4A G68C,0.141
15,U5C U14C,0.557
16,A28C G29C,0.204
17,C3G A47G,0.179
18,A36C U63C,0.259
19,G17C U67A,0.227
20,U20A A61G,0.11
21,C3A A35C,1.15
22,C37U C50A,0.116
23,G15U A43G,0.151
24,U2C C16U,0.163

row,Variant,self-cleavage
1,C4A U67A,0.155
2,U53G U62G,0.315
3,U8G A11C,0.512
4,A36C A47U,0.29
5,G1U A24G,0.0236
6,A11G G54C,0.297
7,G25C G56U,0.153
8,C10G G51C,0.585
9,A35C U58C,0.798
10,G17U C46G,0.192
11,G29C G40U,0.171
12,C18G C38A,0.11
13,C48G U53A,0.101
14,U7G A28U,0.498
15,G27C G51C,0.135
16,U9G A26C,0.418
17,U55G A64G,0.266
18,G32A C38G,0.1
19,A23G A43G,0.0591
20,U63C G69C,0.28
21,A23U A49C,0.117
22,G25C U60G,0.297
23,A28C U67G,0.184
24,G25U C38A,0.216

row,Variant,self-cleavage
1,C3A G40C,0.0884
2,U55G,0.297
3,A26U C50G,0.148
4,U9C U53C,0.741
5,G34U C48U,0.695
6,U9G U70G,0.539
7,U53C G57C,0.244
8,G13A A64C,0.178
9,G32U U63G,0.113
10,G13C G21U,0.49
11,C50G U55A,0.153
12,G34C C50G,1.45
13,C18G G56C,0.176
14,A23G A49G,0.426
15,A43U G57U,0.152
16,U7A A43G,0.222
17,A43C U53A,0.129
18,C3U U62C,0.23
19,A28G A49U,0.118
20,U7G A41C,0.863
21,U14A G19A,0.756
22,C38A C46A,0.0508
23,C10U U60C,0.992
24,A43G G56U,0.0228

row,Variant,self-cleavage
1,U14A U62C,0.257
2,C10G A22C,0.597
3,C6G U55C,0.156
4,U5C A11C,0.764
5,U58C U62A,0.24
6,G27A A45U,0.201
7,C4U G57U,0.161
8,A24U A44G,0.119
9,U8G G15U,0.656
10,A22C A23G,0.779
11,G17C C66G,0.0719
12,A22G A59U,0.0393
13,U33C A43C,0
14,C48G U53C,0.206
15,U20A A30G,0.184
16,A22C U67C,0.196
17,A44U A64C,0.216
18,A44U C66A,0.151
19,G27C G51U,0.17
20,A35U C66A,0.154
21,A36G C48A,0.196
22,C12U U70A,0.746
23,G19C U63G,0.123
24,U9A G29U,0.144

row,Variant,self-cleavage
1,A35U C46A,0.16
2,G68U U70A,0.269
3,U58A C65U,0.203
4,U60A G68A,0.298
5,C16U U63C,0.165
6,C37A U53C,0.515
7,U5A C16G,0.231
8,C12U C66G,0.126
9,G19U U63C,0.164
10,A49C C65G,0.168
11,C38U G42U,0.2
12,A22C C50U,0.405
13,C10G A31C,0.198
14,A28U A31U,0.138
15,G40U U53A,0.121
16,U14A A41G,0.867
17,G1C G32U,0.171
18,C18G U67G,0.275
19,A22C A23C,0.947
20,C66U G68A,0.0865
21,C6G A36G,0.768
22,A24U U70C,0.743
23,A28C G56C,0.101
24,C50A,0.283

row,Variant,self-cleavage
1,C3A U63G,0.174
2,A23G A31U,0.0848
3,C46U A61G,0.129
4,A39U U52A,0.406
5,U2G G54A,0.114
6,G51C U58C,0.905
7,G32C U58C,0.0937
8,C38A G51A,0.349
9,G1C U5G,0.237
10,G17C U62C,0.233
11,C50G G56U,0.124
12,U33G A64U,0.144
13,G19U G32C,0.137
14,G25U A28C,0.233
15,A47G U63G,0.0332
16,G1A C3U,0.136
17,U9G A31U,0.1
18,C6U U20A,0.764
19,C12U A30U,0.136
20,U60C C65G,0.531
21,G13U U52G,0.623
22,U55C,0.25
23,C4G A11C,0.113
24,U8G G51C,0.665

row,Variant,self-cleavage
1,G27U G34U,1.15
2,G25A A71G,0.66
3,C12A G54C,0.389
4,U20G C66G,0.219
5,G17C A36C,0.532
6,U62C C66U,0.189
7,G34U C38U,1.42
8,A26C A49C,0.218
9,C37A G57U,0.142
10,A11U U52C,0.891
11,A47C U58C,0.318
12,A35G A49C,0.12
13,U62C U63A,0.21
14,C16A C48G,0.155
15,A41U G56A,0.285
16,G27C U70G,0.122
17,U20A A23G,0.783
18,C6A A26C,0.418
19,C50A G68C,0.178
20,A39U A44C,0.127
21,C12A C48A,0.162
22,G32C C50U,0.0935
23,C10G G34C,1.08
24,C6U A44G,0.132

row,Variant,self-cleavage
1,C18G G57U,0.243
2,U9C C38U,0.338
3,C4A G42A,0.111
4,U14A A26C,0.817
5,G25A A43U,0.186
6,A11G G21C,0.618
7,C6A G54C,0.209
8,U5C U14G,0.385
9,G32U A36C,0.1
10,A23C A45C,0.0875
11,A28G U62G,0.183
12,G29U G68U,0.176
13,C3G G21U,0.252
14,G57U U60C,0.246
15,C6A U8A,0.319
16,G17U A61U,0.158
17,A26U U60C,0.898
18,U9C A28U,0.571
19,A59C U67G,0.24
20,C4G C46A,0.102
21,C46U A64C,0.0758
22,U5C C66G,0.113
23,G13A C66A,0.173
24,G40A U62A,0.12

row,Variant,self-cleavage
1,C4A A61C,0.173
2,U7G A35C,0.757
3,A39C U70A,0.188
4,C4G A59C,0.15
5,C3G A61U,0.0942
6,A23U G29U,0.142
7,U7A G40C,0.166
8,U14C C48U,0.117
9,A35U G57C,0.116
10,A24G U67C,0.222
11,U8A A64C,0.181
12,U14G G27U,0.144
13,C16U C46A,0.177
14,C16A G34A,1.35
15,C46G U67G,0.198
16,A11U U60G,0.509
17,U60A A64G,0.353
18,A26C G27C,0.197
19,U7A U55G,0.205
20,U9G C46A,0.204
21,U20A C65A,0.857
22,A43C U67C,0.112
23,A44U A64U,0.203
24,A23U A64C,0.221

row,Variant,self-cleavage
1,C10A C46A,0.109
2,A35U U62C,0.0853
3,A31C U67G,0.0719
4,C10A U62C,0.241
5,G42U U70A,0.233
6,G17C G69A,0.404
7,U55A G57U,0.146
8,A23C G34U,1.14
9,C3G U33G,0.156
10,A36G A61U,0.205
11,A23C G51A,0.83
12,U2A G40U,0.129
13,U7C G68U,0.171
14,C10G C18A,0.907
15,A22G A24U,1.08
16,A43C G54C,0.163
17,U7G G25U,0.17
18,A22G C38A,0.147
19,U8G U58A,0.665
20,G19C C65A,0.877
21,A35G G57C,0.268
22,A11G G51U,0.713
23,G21U A64G,0.573
24,C3A C6A,0.484

row,Variant,self-cleavage
1,U2C A44C,0.0731
2,A22G G56A,0.185
3,A49C,0.161
4,C4G G57C,0.143
5,A47U A64U,0.123
6,G27A A30U,0.0812
7,G17U A23U,0.811
8,C37G G56U,0.0996
9,G17U A24G,0.766
10,A35G U52G,0.97
11,G15C U62C,0.0966
12,C4G U52C,0.174
13,U14A G32A,0.106
14,C46U C50G,0.0749
15,A61G C65G,0.303
16,G15C A23U,1.02
17,G17A A59U,0.116
18,C10G A35U,0.517
19,C12U G32A,0.134
20,G13U G15U,0.941
21,G19C C46G,0.088
22,G1C C18A,0.177
23,A35U U62G,0
24,C16U C37U,0.508

row,Variant,self-cleavage
1,G51A A71C,1.49
2,A23G A39C,0.408
3,G1U U33C,0.173
4,A22C G40C,0.123
5,A22G A24G,0.808
6,G13C U62G,0.185
7,U7A A11U,0.649
8,A23U A41G,0.749
9,C12U G40U,0.191
10,A36U A47C,0.146
11,G1A U62G,0.0492
12,U9C A59G,0.0975
13,C10G U70C,0.93
14,A31U U63A,0.0279
15,A11U C16U,1.02
16,A24U C37U,0.734
17,A59U C66G,0.185
18,U5C C10G,0.373
19,C38G U60A,0.116
20,G29C A64G,0.124
21,U5C C50U,0.17
22,G25C A49C,0.136
23,U9A A24G,0.461
24,C3A C66A,0.188

row,Variant,self-cleavage
1,C38G,0.181
2,U63A A64G,0.0955
3,A24U U70G,0.533
4,A11G C16U,0.902
5,C3U U20A,0.374
6,G19C G42U,0.24
7,G42C A71G,0.339
8,C18U A49G,0.567
9,G13U C37A,0.249
10,U33A U63A,0.0514
11,U2G A22C,0.354
12,A26U U33G,0.107
13,A49U U55G,0.366
14,A22G A39G,0.298
15,U8C A39C,0.343
16,C48U C50U,0.0683
17,A30C C46A,0.0713
18,C6U A24U,0.781
19,C10U C12A,0.574
20,A24G G25A,0.591
21,U52G U62A,0.187
22,G32C C65G,0.0614
23,C6A A59C,0.113
24,G17C G34C,1.16

row,Variant,self-cleavage
1,A47U U63C,0.175
2,C12G A22C,0.518
3,A23U U62G,0.171
4,G51U A61U,0.25
5,C10A A47G,0.2
6,A23U A35G,0.967
7,G15A G56U,0.134
8,A22C G29C,0.0774
9,U8G A49C,0.108
10,G56A A61G,0.2
11,C37U C48U,0.144
12,G13A A41U,0.964
13,U5A G27U,0.116
14,C37G A45G,0.103
15,U8A U53A,0.763
16,U14C C37A,0.245
17,G19A U70G,0.917
18,G27A U58C,0.516
19,A28G U52C,0.763
20,C46G G68A,0.123
21,C12G G27U,0.261
22,A35U G56A,0.143
